Data on 1 molecule can be found in patent publication US20080095768A1 (PDL BIOPHARMA, published 2008).

This experiment addresses T1, human CS1 (CD2-subset1) (human, UniProt Q9NQ25 23-335).
T1 construct: Endogenous CS1 on primary myeloma cells / CD138+ tissue plasma cells; also called SLAMF7; CRACC
Nature of the experiment: flow cytometry on primary myeloma cells and IHC on normal tissues, using HuLuc63 as the detecting antibody. The method, then: Gene expression was assessed using an Affymetrix GeneChip array. Protein expression was measured by flow cytometry, and immunohistochemistry (IHC), using HuLuc63, a novel humanized anti-CS1 mAb. HuLuc63-mediated lysis of myeloma cells via antibody dependent cellular cytotoxicity (ADCC) was measured by ⁵¹Cr-release.
CS1 mRNA was detected in CD138+ purified plasma cells from >95% of healthy donors, newly diagnosed myeloma patients, and those with relapsed myeloma (FIG. 1). […] Finally, we determined that HuLuc63 could induce killing of myeloma cells using purified allogeneic NK cells (FIG. 2). […] Our data support the potential clinical utility of CS1-targeted therapy.

B1: HuLuc63 (antibody, IgG1, V domains shown)
VH: EVQLVESGGGLVQPGGSLRLSCAASGFDFSRYWMSWVRQAPGKGLEWIGEINPDSSTINYAPSLKDKFIISRDNAKNSLYLQMNSLRAEDTAVYYCARPDGNYWYFDVWGQGTLVTVSS
VL: DIQMTQSPSSLSASVGDRVTITCKASQDVGIAVAWYQQKPGKVPKLLIYWASTRHTGVPDRFSGSGSGTDFTLTISSLQPEDVATYYCQQYSSYPYTFGQGTKVEIK
notes: Humanized recombinant monoclonal IgG1; also called HyLuc63; humanized anti-CS1 mAb
On to B1, for which the binding result was “binds”.
